A word on the EC50: it is the concentration needed to bring the measured effect to its halfway point.

For test [1], the target named is T1, HiLyte488 labelled Aβ1-42 protofibrils (UniProt P05067 672-713, HiLyte488 fluorophore on part of the peptides (labelled and unlabelled Aβ1-42 monomers mixed 1:5)). Description: cell-based or functional assay.
The target in test [2] is T1, HiLyte488 labelled Aβ1-42 protofibrils. As to the kind of experiment: cell-based or functional assay. This is another data set of the same source.
Test [3] deals with T2, Aβ1-42 (rPeptide, A-1167-2) (UniProt P05067 672-713).
T2 construct: domain: Aβ1-42; also called Abeta 1-42
Description: direct ELISA, coated Aβ1-42.

Test [4] has as its target T3, pyroglutamate-modified Aβ (Aβp3-42) (AnaSpec, AS-29907-01) (UniProt P05067 674-713, pyroglutamate at Aβ position 3 (the N-terminus)).
T3 construct: domain: Aβp3-42; also called Abeta p3-42
Description: direct ELISA, coated Aβp3-42. The procedure: (§1) Direct ELISA was used to test each antibody's affinity for Aβ₁₋₄₂ and pyroglutamate-modified Aβ (Aβₚ₃₋₄₂). Plates were coated with 0.5 μM of Aβ₁₋₄₂ (rPeptide, A-1167-2) or Aβₚ₃₋₄₂ (AnaSpec, AS-29907-01) for 2 h at 4° C. Diluents of antibodies (3-fold serial dilutions with concentrations in the range of 0-100 nM) were added to the plate for 1 h at RT. Binding of antibody to immobilized Aβ on each plate was detected by HRP-labeled secondary antibody and TMB substrate, as described in Example 2.
On the technique in general: ELISA stands for enzyme-linked immunosorbent assay.

In test [5] the target is T2, Aβ1-42 (rPeptide, A-1167-2). Description: direct ELISA, coated Aβ1-42. The method, then:
as §1
This is another data set of the same source.

Test [6] shares this target. As to the kind of experiment: direct ELISA, coated Aβ1-42. The source holds these as a separate data set.
The target in test [7] is T3, pyroglutamate-modified Aβ (Aβp3-42) …. As to the kind of experiment: direct ELISA, coated Aβp3-42. The source holds these as a separate data set.
A further test addresses T4, Aβ1-42 protofibril (UniProt P05067 672-713).
T4 construct: domain: Aβ1-42; soluble multimer of Aβ1-42; also called Aβ protofibril; Aβ protofibrils
Description: ratio of competitive ELISA IC50s, monomer as reference. An excerpt:
The binding was detected by HRP-labeled secondary antibody and TMB substrate, as described in Example 2.

Test [8] concerns the target T5, biotin-labelled Aβ1-40 monomer (AnaSpec, AS-61483-01) (UniProt P05067 672-711, biotin label, position not stated).
T5 construct: domain: Aβ1-40; also called biotin-conjugated Aβ40 monomer; biotin-Aβ monomer
Description: capture ELISA, coated antibody, biotin-Aβ1-40 monomer. The procedure: A 96-well plate was coated with 5 μg/mL of antibodies overnight at RT. The plate was then treated with diluents of biotin-labelled Aβ₁₋₄₀ monomers (AnaSpec, AS-61483-01, 4-fold serial dilutions with concentrations in the range of 0-1000 nM) for 1 h at RT. The binding of biotin-labelled Aβ₁₋₄₀ monomers with immobilized antibody was detected by HRP-conjugated streptavidin and TMB, as described in Example 2.

For test [9], the target named is T5, biotin-labelled Aβ1-40 monomer …. The test is described as above. This is another data set of the same source.

Like-named read-outs stand apart in the source and are kept apart here.

B1: 20O07A (mIgG1) (antibody, V domains shown)
VH: EVQLVESGGGLVQPGGSLKLSCAVSGFTFSGSAIHWVRQASGKGLEWVGRIRSKVNSYATVYAASVKGRFTISRDDSKNTAFLQMNSLKTEDTAVYYCTSHAPIFDAFDIWGQGTMVTVSS
VL: QSVLTQPPSVSAAPGQKVTISCSGSSSNIGNHYVSWYQQLPGTAPKFLIYDNSKRPSGIPDRFSGSKSGTSATLGITGLQTGDEADYYCGTWDSSLSTYFFGTGTKVTVL
notes: chimeric: fully human F(ab')2, mouse IgG1 CH2-CH3; also called Chimeric mouse 20O07A (mlgG1)
For B1, the “relative ADCP” value in [1] was 1.05 relative to ADCP response of rfmAb-1. Further, in test [2], the “ADCP (RFU)” value was 334000 RFU. In addition, the half-maximal effective concentration (EC50) was less than 0.1 nM in [3]; greater than 50 nM in test [4]; 0.05 nM in test [5]; 0.05 nM in test [6]; 336 nM in [7]; 2.57 nM in [8]. Also, in test [9], a half-maximal response (EC50) required 2.57 nM. In addition, the “ratio of IC50 monomer to IC50 protofibril” value in the test with Aβ1-42 protofibril is greater than 300 fold.

Source of the values: patent US20240301046A1 (MABWELL THERAPEUTICS, published 2024).
